The target in the assay is Cy5-labeled proliferating cell nuclear antigen (PCNA) (human) (UniProt P12004).
Chain of Cy5-labeled proliferating cell nuclear antigen (PCNA) (human) (P12004 whole entry): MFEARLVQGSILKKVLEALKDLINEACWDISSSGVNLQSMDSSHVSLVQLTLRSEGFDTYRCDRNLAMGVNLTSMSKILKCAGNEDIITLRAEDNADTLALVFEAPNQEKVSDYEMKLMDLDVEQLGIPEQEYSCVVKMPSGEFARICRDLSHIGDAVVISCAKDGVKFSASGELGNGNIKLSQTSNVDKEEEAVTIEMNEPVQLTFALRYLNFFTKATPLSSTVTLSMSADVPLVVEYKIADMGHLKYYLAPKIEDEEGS

Chain of Doubly monoubiquitinated PAF15 (Di-UbPAF15) (Q15004 whole entry, looked up): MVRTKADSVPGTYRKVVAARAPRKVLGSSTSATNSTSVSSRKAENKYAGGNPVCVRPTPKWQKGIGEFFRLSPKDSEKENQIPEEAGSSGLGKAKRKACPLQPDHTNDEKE
Chain of ΔN-PAF15 (truncated PAF15 variant lacking residues 2-31) (Q15004 32-111, stated change not applied): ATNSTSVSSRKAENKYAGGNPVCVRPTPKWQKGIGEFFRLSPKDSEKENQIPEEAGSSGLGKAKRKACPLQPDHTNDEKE
Chain of PAF15^50–77 peptide (Q15004 50-77): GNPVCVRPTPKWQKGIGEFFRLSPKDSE

The substance “Doubly monoubiquitinated PAF15 (Di-UbPAF15) (from UniProt Q15004 2-111) (complex)” displayed a diffusion constant of Cy5-PCNA on DNA with 1 μM Di-UbPAF15 of 0.2 μm2/s. PAF15^50–77 peptide returned a diffusion constant of Cy5-PCNA on DNA with 20 μM PAF15 50-77 of 0.22 μm2/s.

Regarding “ΔN-PAF15 (truncated PAF15 variant lacking residues 2-31) (from UniProt Q15004 32-111) (domain or fragment)”, the diffusion constant of Cy5-PCNA on DNA with 1 μM ΔN-PAF15 turned out to be 0.15 μm2/s.

These data come from article doi:10.1101/2025.11.15.688598.
